Experimental data reported in PMC4339722, “Analysis of the Link between the Redox State and Enzymatic Activity of the HtrA (DegP) Protein from Escherichia coli” (PLoS ONE, 2015).

Biological target: the molecule itself
Assay: cross-linking + SEC; with 2.5-, 5- or 10-fold molar excess of the 22-peptide …; HtrA variants 10 μM monomer, 15 min 37°C then 10 h 4°C in 20 mM HEPES-NaOH pH 8.0, 100 mM NaCl; BS^3 0.45 mM, 30 min room temperature; Superose 12 10/300 GL, 25°C

B1: HtrA-S210A (oxidized control variant, as used in cross-linking and SEC) (enzyme, Escherichia coli, UniProt P0C0V0 27-474, looked up)
chain: AETSSATTAQQMPSLAPMLEKVMPSVVSINVEGSTTVNTPRMPRNFQQFFGDDSPFCQEGSPFQSSPFCQGGQGGNGGGQQQKFMALGSGVIIDADKGYVVTNNHVVDNATVIKVQLSDGRKFDAKMVGKDPRSDIALIQIQNPKNLTAIKMADSDALRVGDYTVAIGNPFGLGETVTSGIVSALGRSGLNAENYENFIQTDAAINRGNAGGALVNLNGELIGINTAILAPDGGNIGIGFAIPSNMVKNLTSQMVEYGQVKRGELGIMGTELNSELAKAMKVDAQRGAFVSQVLPNSSAAKAGIKAGDVITSLNGKPISSFAALRAQVGTMPVGSKLTLGLLRDGKQVNVNLELQQSSQNQVDSSSIFNGIEGAEMSNKGKDQGVVVNNVKTGTPAAQIGLKKGDVIIGANQQAVKNIAELRKVLDSKPSVLALNIQRGDSTIYLLMQ
modifications: disulfide bond Cys57-Cys69 (oxidized)
notes: HtrA (DegP) serine protease, Escherichia coli; polypeptide chain of 448 residues as printed; also called oxidized control (S210A); control HtrA
Q: With B1 as the protein, how does the “stoichiometry N” value read?
A: Its value is 12.
